Source: patent publication US20220332804A1 (CSL INNOVATION, published 2022)
Substitutions are numbered along the chain they refer to. In names and notes the source's numbering stands.

Assays:
[1] = target: T1, human complement C2 (human, UniProt P06681 21-752); assay: cell-based or functional assay
T1 sequence: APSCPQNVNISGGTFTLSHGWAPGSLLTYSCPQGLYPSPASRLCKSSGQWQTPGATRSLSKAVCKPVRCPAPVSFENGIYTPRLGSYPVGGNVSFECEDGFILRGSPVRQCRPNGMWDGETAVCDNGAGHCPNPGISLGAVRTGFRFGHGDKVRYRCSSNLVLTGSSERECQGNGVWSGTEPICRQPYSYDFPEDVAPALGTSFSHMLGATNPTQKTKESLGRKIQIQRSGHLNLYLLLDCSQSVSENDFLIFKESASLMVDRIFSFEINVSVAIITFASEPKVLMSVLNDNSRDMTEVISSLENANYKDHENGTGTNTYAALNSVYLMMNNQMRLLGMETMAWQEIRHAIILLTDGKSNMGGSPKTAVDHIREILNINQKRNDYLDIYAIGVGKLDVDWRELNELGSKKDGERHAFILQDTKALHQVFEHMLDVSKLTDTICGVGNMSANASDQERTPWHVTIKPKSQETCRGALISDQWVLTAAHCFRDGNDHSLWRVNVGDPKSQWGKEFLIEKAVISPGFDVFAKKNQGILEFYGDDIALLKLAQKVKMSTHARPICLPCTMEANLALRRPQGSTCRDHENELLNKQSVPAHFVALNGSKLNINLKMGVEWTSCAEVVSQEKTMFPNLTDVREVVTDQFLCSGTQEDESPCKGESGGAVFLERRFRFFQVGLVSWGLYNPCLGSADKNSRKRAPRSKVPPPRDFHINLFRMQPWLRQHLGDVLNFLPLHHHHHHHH

[2] = target: T2, mouse C2 (mouse, UniProt P21180 19-760, limits assumed); assay: SPR, mAb captured, mouse C2 analyte, pH 7.3
T2 sequence (looked up): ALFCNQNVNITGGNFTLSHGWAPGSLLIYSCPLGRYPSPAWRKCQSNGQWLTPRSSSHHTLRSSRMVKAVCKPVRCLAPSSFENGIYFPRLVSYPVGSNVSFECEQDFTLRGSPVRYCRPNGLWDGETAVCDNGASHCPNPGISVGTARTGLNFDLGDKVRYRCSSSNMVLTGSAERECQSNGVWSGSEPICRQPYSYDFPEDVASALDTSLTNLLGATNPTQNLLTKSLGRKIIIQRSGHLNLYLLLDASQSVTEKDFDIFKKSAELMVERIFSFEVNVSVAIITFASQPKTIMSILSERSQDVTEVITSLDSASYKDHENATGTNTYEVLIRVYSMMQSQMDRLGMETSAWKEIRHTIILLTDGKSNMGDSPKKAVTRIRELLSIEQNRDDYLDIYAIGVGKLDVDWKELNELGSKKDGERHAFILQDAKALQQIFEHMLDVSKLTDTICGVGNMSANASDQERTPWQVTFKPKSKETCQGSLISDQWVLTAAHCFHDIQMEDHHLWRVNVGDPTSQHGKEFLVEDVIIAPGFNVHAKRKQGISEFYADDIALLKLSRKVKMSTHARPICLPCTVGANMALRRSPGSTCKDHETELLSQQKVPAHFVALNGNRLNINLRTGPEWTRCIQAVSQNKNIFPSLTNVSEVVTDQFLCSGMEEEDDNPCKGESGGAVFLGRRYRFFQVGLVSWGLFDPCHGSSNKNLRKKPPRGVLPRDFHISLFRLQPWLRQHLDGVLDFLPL
Protocol: (§1) Surface plasmon resonance (SPR, Biacore) was used for all binding affinity analyses. In brief, goat anti-human IgG was directly immobilised onto the carboxymethyl dextran surface of CM5 sensorchips to approximately 12,000 RU using standard NHS/EDC chemistry at pH 5. The immobilised antibody surface was pre-conditioned with ten injections of polyclonal human IgG (Privigen 60 s) prepared at 1 μg/mL. Ligands (anti-C2 mAbs) were captured at the beginning of each cycle as described below. An adjacent spot or flow cell in which only Polyclonal IgG was capture was used as a reference surface. The goat anti-human IgG Fc antibody surface was regenerate in 100 mM H3PO4, injected for 45 seconds at the end of each cycle. Experiments were performed at 37° C. and the flow rate of each experiment was kept constant at 30 μL/min.
(§2) In addition to human C2, the pH dependent anti-C2 antibodies were also tested for their ability to bind to C2 from other mammalian species using the SPR methods described above in order to identify suitable surrogate species for in vivo testing. The antibodies were tested for binding at neutral pH against C2 from cynomolgus monkeys, mice, dogs, rabbits, rats, pigs, and sheep.

[3] = target: T3, cynomolgus monkey C2 (cynomolgus monkey, UniProt G8F3W0 21-752); assay: SPR, mAb captured, cyno C2 analyte, pH 7.3
T3 construct: also called cyno C2
T3 sequence: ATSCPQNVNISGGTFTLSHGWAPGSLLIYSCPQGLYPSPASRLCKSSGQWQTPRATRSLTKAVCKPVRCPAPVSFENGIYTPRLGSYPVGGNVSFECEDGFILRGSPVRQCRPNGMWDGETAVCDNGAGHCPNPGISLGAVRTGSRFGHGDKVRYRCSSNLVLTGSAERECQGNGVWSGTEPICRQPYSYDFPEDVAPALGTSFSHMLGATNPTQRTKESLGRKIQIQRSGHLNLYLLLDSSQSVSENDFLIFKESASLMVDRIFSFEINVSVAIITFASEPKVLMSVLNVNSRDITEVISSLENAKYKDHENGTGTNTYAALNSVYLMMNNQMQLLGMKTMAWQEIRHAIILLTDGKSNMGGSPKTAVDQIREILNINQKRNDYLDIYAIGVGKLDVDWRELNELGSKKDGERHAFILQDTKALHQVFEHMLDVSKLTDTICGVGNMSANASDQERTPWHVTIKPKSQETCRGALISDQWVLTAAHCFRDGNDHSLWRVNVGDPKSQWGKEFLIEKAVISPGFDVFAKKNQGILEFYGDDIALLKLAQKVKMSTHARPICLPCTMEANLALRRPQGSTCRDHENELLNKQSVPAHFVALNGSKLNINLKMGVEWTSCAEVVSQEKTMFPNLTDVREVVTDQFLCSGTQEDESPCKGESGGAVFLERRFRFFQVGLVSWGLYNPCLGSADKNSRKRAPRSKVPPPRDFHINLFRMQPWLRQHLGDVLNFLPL
Protocol: as §1, §2

[4] = target: T3, cynomolgus monkey C2; assay: cell-based or functional assay
[5] = target: T1, human complement C2; assay: cell-based or functional assay; remark: listed apart in the source
[6] = target: T3, cynomolgus monkey C2; assay: cell-based or functional assay; remark: listed apart in the source
[7] = target: T3, cynomolgus monkey C2; assay: SPR, mAb captured, cyno C2 analyte, pH 6.0
Protocol: as §1, §2

[8] = target: T1, human complement C2; assay: SPR, mAb captured, C2 analyte, HBS-EP, pH 7.3
Protocol: as §1
(§3) The pH dependent anti-C2 antibodies and their germlined versions were tested for their affinity to C2 at pH 7.3 (neutral pH) and pH 6.0 (early endosome pH) using the SPR methods described above in HBS-EP buffer.

[9] = target: T1, human complement C2; assay: SPR, mAb captured, C2 analyte, HBS-EP, pH 6.0
Protocol: as §1, §3

[10] = target: T1, human complement C2; assay: SPR, mAb captured, huC2 analyte, pH 6
[11] = target: T1, human complement C2; assay: SPR, mAb captured, huC2 analyte, neutral pH; pH 7
[12] = target: T4, human FcRn/β2m (human, UniProt P55899 24-297; P61769 21-119); assay: SPR, antibody immobilised, FcRn/β2m analyte, pH 6.0; pH 6.0
T4 construct: Soluble FcRn/β2m injected as analyte over immobilised antibody; also called neonatal Fc receptor
T4 sequence (P55899 24-297 limits assumed, chain 1 of 2): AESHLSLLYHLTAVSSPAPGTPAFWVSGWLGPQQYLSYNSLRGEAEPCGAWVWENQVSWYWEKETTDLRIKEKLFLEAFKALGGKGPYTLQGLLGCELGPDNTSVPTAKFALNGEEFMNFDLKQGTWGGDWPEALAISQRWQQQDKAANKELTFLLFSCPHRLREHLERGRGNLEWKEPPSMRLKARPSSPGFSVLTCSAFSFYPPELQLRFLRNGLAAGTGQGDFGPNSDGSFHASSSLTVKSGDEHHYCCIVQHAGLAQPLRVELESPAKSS
T4 sequence (P61769 21-119 limits assumed, chain 2 of 2): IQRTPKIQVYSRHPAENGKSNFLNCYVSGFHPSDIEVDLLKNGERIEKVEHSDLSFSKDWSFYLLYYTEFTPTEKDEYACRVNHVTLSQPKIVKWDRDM
Protocol: (§4) Anti-C2 mAbs (1 μg/mL at pH 5) were immobilized on a carboxylmethyldextran (CM5) sensorchip surface using standard EDC/NHS chemistry. Human and Cyno FcRn/β2m (40 μM) were prepared in running buffer (10 mM HEPES, 150 mM NaCl, 10 mM MES adjusted to either pH 6 or pH 7.3) and injected on the immobilized anti-C2 surface at concentrations ranging from 0.078 to 40 μM, prepared in two-fold dilutions in running buffer. Association and dissociation phases were monitored for 180 and 600 seconds, respectively. […] Double referenced sensorgrams were fitted to either a 1:1 kinetic model (pH 6), including a term for mass transport limitation or to a 1:1 steady state model (pH 7.3) where responses at the end of the association phase were plotted against respective concentrations.
(§5) Binding to both human and cynomolgus monkey FcRn was tested using the SPR methods described above.

[13] = target: T5, cynomolgus monkey FcRn/β2m (cynomolgus monkey, UniProt Q8SPV9 24-297; Q8SPW0 21-119, limits assumed); assay: SPR, immobilised antibody, cyno FcRn/b2m analyte, pH 6.0; pH 6.0
T5 construct: injected in solution over immobilised antibody; also called Cyno FcRn/β2m
T5 sequence (Q8SPV9 24-297 limits assumed, chain 1 of 2): as the sequence (P55899 24-297 limits assumed, chain 1 of 2) above, with N39D, E44Q, G99S, S189G, S190N, L217M, S269T counted along it
T5 sequence (Q8SPW0 21-119 limits assumed, chain 2 of 2): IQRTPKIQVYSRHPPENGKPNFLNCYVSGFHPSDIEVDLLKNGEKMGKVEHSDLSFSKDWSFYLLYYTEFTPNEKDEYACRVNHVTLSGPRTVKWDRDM
Protocol: as §4, §5

B1: RF16-191 (antibody, V domains shown)
VH: EVQLLESGGGLVQPGGSLRLSCAASGFTFSKYWMGWVRQATGKGLEWVSSIYSSGGWTYYADSVKGRFTISRDNSKNTLYLQMNSLRAEDTAVYYCARRPRSFSGSYYRAFDIWGQGTMVTVSS
VL: DIQMTQSPSSLSASVGDRVTITCRASQSITDYLNWYQQRPGKAPKLLIYAASSLQSGVPSRFSGSGSGTDFTLTISGLQPEDFATYYCQQSYSSSITFGQGTRLDLKR
notes: Human antibody from a phage display library
- IC50, inhibition of human classical complement pathway (Wieslab assay) [1]: 1.09 nM
- IC50, inhibition of human lectin complement pathway (Wieslab assay) [1]: 0.857 nM
- Kd [2]: 303 nM
- Kd [3]: 27.4 nM
- IC50, inhibition of cyno classical pathway (hemolysis assay) [4]: 188 nM
- IC50, inhibition of human classical pathway (hemolysis assay) [5]: 29.4 nM
- IC50, inhibition of cynomolgus classical complement pathway (Wieslab assay) [6]: 11 nM
- IC50, inhibition of cynomolgus lectin complement pathway (Wieslab assay) [6]: 49.2 nM
- Kd [7]: 71.3 nM
- Kd [8]: 10.9 nM
- Kd [9]: 13 nM

B2: RF16-226 YEY (antibody, human IgG4 S228P, lambda)
heavy: EVQLVQSGAEVKKPGESLKISCKGSGYSFTSYWIGWVRQMPGKGLEWMGIIYPGDSDTRYSPSFQGQVTISADKSISTAYLQWSSLKASDTAMYYCARRFSYSSGWDMWGQGTLVTVSSASTKGPSVFPLAPCSRSTSESTAALGCLVKDYFPEPVTVSWNSGALTSGVHTFPAVLQSSGLYSLSSVVTVPSSSLGTKTYTCNVDHKPSNTKVDKRVESKYGPPCPPCPAPEFLGGPSVFLFPPKPKDTLYISRTPEVTCVVVDVSQEDPEVQFNWYVDGVEVHEAKTKPREEQFNSTYRVVSVLTVLHQDWLNGKEYKCKVSNKGLPSSIEKTISKAKGQPREPQVYTLPPSQEEMTKNQVSLTCLVKGFYPSDIAVEWESNGQPENNYKTTPPVLDSDGSFFLYSRLTVDKSRWQEGNVFSCSVMHEALHYHYTQKSLSLSLGK
light: SYELTQPPSVSVSPGQTARITCSGDALTSKYVAWYQQKSGLAPLLVIYEDTRRPSGIPAKFSGSSSGSVATLTISGAHGDDEADYYCYSTDASGHQRVFGGGTKLTVLSQPKAAPSVTLFPPSSEELQANKATLVCLISDFYPGAVTVAWKADGSPVKAGVETTKPSKQSNNKYAASSYLSLTPEQWKSHRSYSCQVTHEGSTVEKTVAPTECS
- Kd [10]: ~80 nM
- Kd [11]: ~9 nM

B3: RF16-226 YTE (antibody, human IgG4 S228P, lambda)
heavy: B2 heavy with S253T, T255E, E285N, Y433N
light: B2 light
- Kd [10]: ~80 nM
- Kd [11]: ~9 nM

B4: RF16-226 M428L, N434A (antibody, human IgG4 S228P, lambda)
heavy: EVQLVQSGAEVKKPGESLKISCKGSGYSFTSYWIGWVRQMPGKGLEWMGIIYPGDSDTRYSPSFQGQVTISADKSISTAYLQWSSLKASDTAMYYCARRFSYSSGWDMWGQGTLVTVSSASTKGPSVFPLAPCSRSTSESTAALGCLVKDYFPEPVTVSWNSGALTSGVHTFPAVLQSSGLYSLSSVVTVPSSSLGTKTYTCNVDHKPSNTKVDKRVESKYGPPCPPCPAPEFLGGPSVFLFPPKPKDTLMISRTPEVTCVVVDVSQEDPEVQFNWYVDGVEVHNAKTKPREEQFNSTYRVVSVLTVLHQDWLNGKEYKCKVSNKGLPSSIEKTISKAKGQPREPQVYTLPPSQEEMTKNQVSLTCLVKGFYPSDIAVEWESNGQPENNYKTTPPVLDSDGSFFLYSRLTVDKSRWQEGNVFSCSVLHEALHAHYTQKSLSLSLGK
light: B2 light
- Kd [12]: 640 nM

B5: RF16-226 YPY (antibody, human IgG4 S228P, lambda)
heavy: B2 heavy with E285N, V307P
light: B2 light
- Kd [10]: ~80 nM
- Kd [11]: ~9 nM

B6: RF16-226 Fc mutant M428L, N434A (antibody, human IgG4 S228P, lambda)
heavy: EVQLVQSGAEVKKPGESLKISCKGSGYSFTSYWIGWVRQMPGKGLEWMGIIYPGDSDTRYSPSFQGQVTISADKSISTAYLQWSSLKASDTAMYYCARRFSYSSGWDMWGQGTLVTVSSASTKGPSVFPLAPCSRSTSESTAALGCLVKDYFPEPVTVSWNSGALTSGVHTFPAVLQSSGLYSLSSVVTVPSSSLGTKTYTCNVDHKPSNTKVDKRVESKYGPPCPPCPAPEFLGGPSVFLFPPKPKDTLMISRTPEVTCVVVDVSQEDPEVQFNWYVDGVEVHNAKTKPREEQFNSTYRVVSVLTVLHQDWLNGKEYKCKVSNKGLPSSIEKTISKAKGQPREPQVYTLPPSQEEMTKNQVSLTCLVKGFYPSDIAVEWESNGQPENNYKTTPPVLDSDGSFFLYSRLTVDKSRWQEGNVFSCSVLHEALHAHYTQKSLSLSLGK
light: B2 light
- Kd [13]: 420 nM

B7: RF16-226 M252Y, S254T, T256E (antibody, human IgG4 S228P, lambda)
heavy: B2 heavy with S253T, T255E, E285N, Y433N
light: B2 light
- Kd [12]: 680 nM
